Data: the domain aggregation screens of Martell et al. (2025)

Assay: soluble fraction after stress (log2 fold change); higher = more stays soluble; pooled small domains, quantitative proteomics
Conditions: stress: pH 4
Procedure, shortened: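 How much of each domain stays soluble after acid stress, expressed as a fold change, is used to gauge aggregation propensity. Pooled custom libraries of small domains underwent pH 4 stress before high-throughput quantitative proteomics. A higher log2 value means more of the domain stayed soluble.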

Sequence | soluble fraction (log2)
HMPTTTFENLPDAKKKTIIAALLKEFSQSPLSKAQVAPIVKESQIARGAFYKYFVDLTDAYTYLYRQ | -0.217
HMPTVLKQGSTGQEVKELQQALSKLGYRVTVTGEFDTATHYGVVRFQRKHRLTIDGIVGPQTLSKIRAHQK | -0.0726
HMPVAPTYALTVKTDPPSANVRLLNSPTPYQPGVRLPSGNYDIEVTQSGYATRKESVRIADRDVALNIAL | 0.0432
HMPVASNRDVNLDIGERVFVQEWAPNRTARVQYRGSPWEARLAPGAPAAAGEHRVSAVEGNWLVLEPA | -0.19
HMPVEFVKISIKPGHPWENQFVRDIVSLPDLLMVLILRGEERIIPNGNTKILVGDKIVLSALSPG | -1.4
HMPVEHVWHIAENGQTSGPYSKARMGRMAQEGQLTRDTHVWTPGQDGWMRAGDVTELAQLFT | -0.0732
HMPVFSLTPRELEILEWMSTPNTYRQIAAQLSVSEETVRSHAKNILEKMRQPNRAQAVLAAVKMGLIKL | -0.772
HMPVISGQDLRVLIRDTGRERDQGISFLDDGTMVVVEDARRLIGQEVTATVTRVHQTQTGRIVFAHLSN | -0.698
HMPVPSPAEQTATQLANIERHTGITVDGWTRAIAEAGAAKHGEIVAWLKQQGLTHGNANALAHAVRARQSG | 0.173
HMPVQSNRDALLDIGQTLQVQAWDAQGSARVSYRGSDWTAEFRGPGAAAPGLHRIIAVQGNRLIVEPA | -0.164
HMPVRIYEISKKLGLENKEVLATAKSLGIAAAKVPSSSLDKITAEYLEEEILKSHPEVAARLK | ≥ 0.43
HMPVYEEEVPAALDGQRLDRVVAMVTGLSRSEVGALLAAGAVTVDGTTPAKGSVRLAAGSIVSVTVS | -0.366
HMQAATGVVTASVLNIRQGPGTNYTKVGSLLKGAQVEIVGQNGAWSKIRLKSGITGWVNSSYLKTST | -0.085
HMQAGPEDIIRAKLKTAMPEAQIISIRPTPAGLYQVNAKGYESVFVTADGRYLFQGDLLEIQGDRIVNL | -0.714
HMQAKNGTVTGSVVNVRGGAGTQYAVKGKASRGTKVTILGQQSSWLNVRLDNGVTGWIHADYVQISE | -1.43
HMQAPHLALSPREFQVLQGLLAGDALDIIAERLHLSAKTVSNHQTLIRQKLGVGNAVELLRYAQLHRL | -0.661
HMQAPIFMNETDGKWYFREKYLNDNHEIAYRVHPEGYDQMEDALRNSVNALNEFAAEMKELRKQV | -0.64
HMQAPVVNHDLIKSFERQWREIKATAKGKVRSVNLSDARSILQSFLNTLQKGPGTDSLISSVQNELSLIA | 0.00595
HMQARDQNVDEGKALLEKEFSRLALENLDRDKLANAVNYPTRDDMYAAIGAGDLRVGQVLHQAQQLF | -0.323
HMQASTGNVNTETLNLRKEASTSADILKLLSQGDEVEIVSESNGWYKVKYKDTEGFVSKEYITVN | -0.159
HMQATETFSLIVPMSSAGNRLDVVLSELLPNFSRKKIQDAIKNGDATLNGKAPKIRDKVYGGENITITLIL | 0.0369
HMQAVDPLELRAGDFVVHEQHGIGRYVEMVQRTIGGITREYLVIEYAPAKRGQPNDRVFVPTDTLEQVS | -0.579
HMQAVKQIKVERGMTLEKIAQSEFGDSTRWGEIVEVNNLRAPYISDDPTETRDGVLKPGSNLLIPIP | -0.825
HMQDEAQLSMSNKYIFEGNSIVKDNFIEAEKKYRLGVSAKPNNAVGSYNLANAYYNSKLYDEAMLRLL | -0.179
HMQDEREEIAVEDVVGMPLWQARKVIADQGFRVLDDGAGDIVIAQMPSGGGKLIEGGQVMLYTYTD | -0.201

Sequence | soluble fraction (log2)
HMQDFEEILKNAKIEDFKHTQTGEDLKVLKIEDKIEDFKGFNAYLVKNQIAYYSKFARGFVVKNIEKLQGV | 0.155
HMQDFEQNLFDGKSIYDRMLSKFSLHNVDVKQLVAHFKRKDTEQFFADIGRGLITSAQMLGFLQT | -0.219
HMQDLVAVPALTGLTENDAINKAKANNLIAVVSEYKTENSVEPGKVLEQDPESSTEVKKGTIIKLVVS | 0.16
HMQDQVTLIVQVNGKLRGQISISTDATKELIEQTALANENVQKFVDGQSIKKIIIVPGRLVNIV | 0.22
HMQDRDKNVPAGKELLDNEIARLNMSLKQVEQFALPRYNLKTLEDLYSGIGSGDIRLNHLINFLQSKLI | -0.892
HMQDREIHIHAGREVLEKELSRLSLHLKNTNLQEYAARFNVKTAEDILAGIGAGDIRPAHVVNLIADKL | -0.222
HMQDSSGENNPQSKLTQQQVDLLMKDLKETNVEFDKLAEKYNVSIKTIRNVNTGIAWRKNDITYPIREP | -0.255
HMQDTQAEEGETLLDALRRIHPESSTGTLRRMLTQGRVQLDGDSVHAAKTVLSAGQRVEVVAR | 0.088
HMQDTTLTSQILRVPSSVNINDLANVLKSLAGKNTVVAPYKAANTIIITGYAPNVRRVLSLANELIPRLDV | -0.0875
HMQEAGLITQRIREMREKENWTQEYMAEQLGMSENGYAKIERGESNLSLKRLQQIADIFEVESAELLK | -0.566
HMQEDKSKYLFQRGTAITVLRPAGIVRIGKERVDAVSNGSYIDRGVAVRVIEVEGTRVVVEPVPE | -0.151
HMQEEMIRGDIKLNTVMQTVHLAVGTETERNWQPVETTAKEFELLKLLMENPGVTLKKEYLFHMLI | -0.654
HMQEESISWKEFLELDIIGDKKKRLKVYDLFHLGYGNAKTLFKRLNMVGISREMIEKELENEGY | -0.0561
HMQEKIREVANRIRELRESLEVSPEEMADHLKVTIGTYIEYERGEADIPASVLFGIAHRLNVDMAVLL | -1.36
HMQEKLELIIPVSSIGKRADVAIQDLLSSYSRAKIQEWIKSGFILLESKKISPKDIFMGGERVFIDIQQDE | -1.38
HMQELVPGKVFEGTVTEMKNGQVTLGLSDGKTISARMEQGVSLAKGQPMLFEVKSNTGEQIAIRPVVL | 0.105
HMQENKVLEGKVLEKKKKKVFVDLSPFGVGVIRGVNYLEAKNELKDIEEGDNIKVRVLEIDNENGFIELAL | -1.13
HMQERQREGFVQQLRGKYSGQVVMRLFPELQGKALGEFMRKFEAQWEDHEAVLAAMEAHEIESRLKVFK | -1.2
HMQETALANFETNEGVQKVKQYVQENVPSLRGSNIVGVWTSYTPEGLTNYRTRFLTQDGQFVEVNLAYQ | -0.885
HMQETIDVAALRVGMFVHLDLGWLAHPFPLSSFRISSEDQISTIRALGLKRVRWSSQHSELG | -1.27
HMQETKDEGAQVLLNKINALVAAVQGQIITPEEAAIKLATDGDLDLDVDARVAAIEEFNKKLSEAQNN | -0.682
HMQEVILEKIQLTYLSADKLSKMAEQFSIPVKMYWVDENPMMLMVMGNESDIATFKKVLTQIDIPENKS | -1.04
HMQFHQDNYALEFIRDLQPVDGAIILSRFKQFDLVELEKAKKIKFSDEHMAWTLYDYDIKKIN | -1.82
HMQFLKPQDVLFLLKLVVLKGPASIFPAVPESLGLSKAEVHNSAKRVRGARLLPHDSWNPLRKNLLEFL | 0.0341
HMQFQVHEIKGKEYYIHVVEKGNTLYAISRMYSVPIETLKEENPRLNTTELTIGDRLLIPLDEVKRKNIE | -0.316

Sequence | soluble fraction (log2)
HMQFYSGLEARLMDPNTPEVFDDPISLMAFLQQKNISRVELEDNLLLPYLKEMAGQPIPKAELLEIIRK | -2.19
HMQGDHELSQRILSYLSEQGGSSPLTDKASPEEIYRIFRVSKKKYKQALGNLYKSKSIIILADKIQLL | 0.195
HMQGEDEILKIHEALEELAQIDARLVRVVEMRYFVGLSNQEIADSLGVTTRTVERDWEKARTFLFNALHP | -0.717
HMQGISGIERSLLDALAFEPAGLDALQARTGLDTPTLQALLMGLELQGHVARLPGSLFQRLVR | -1.35
HMQGVTVPDLTRVSLEEAVATISSLGLRYEISDRRSNAAFPANYVLDQAPGANTIVKPNRKVYLTVNAA | 0.381
HMQGWREWDYSADLYINARVGGKIEPTENSPISRVYELDEPVSVVAFTSTRYFKLSSGDYIFAEYLSAQKV | -0.18
HMQGYELKMYVTPDTKYSVAVYDAKNEMVSYTMGFSAKAPFGQEGEVLETVKLEFDKLAVGNYELKYWI | -0.0121
HMQHYQFEVDEASSKKRLDVFLSENLPEISRSRLKKLIDEKRVTVNEMSRPAGYKVRVKEKIEFHIPPL | -0.317
HMQIAEAESLGQRLLQQSINNIVGRDEAITEERLNRVLSQYSLTGRDELMAQIGLGNRNSSLVAKAMYDI | -0.35
HMQIKEVDYGTFISMTEDGEIGRVEIQQQENTILFTDEDETAVYKTAMVEDDQLTQRLYDAGISFYGEE | -0.784
HMQILVEGVEANQRLDLFLRARLTEFSRSRIQGLVKNGNVLVNGNIARQAYLVQVGDKIELDVPEPVA | 0.112
HMQIMVVDEADRMLDMGFIPDIERIFQLTPFTRQTLFFSATMAPEIERITDTFLHSPERIEVAR | -1.14
HMQISDDGFILKIINEVVAENPKSISDYISGKEAAVGFLVGQIMKKTRGKANPKLVNEMLITELAKLKN | -0.393
HMQISDESSIAKIADEVISEFPSQVSEFRSGKEKVLQFLIGQVMKKTKGKANPQITAKILREKLS | 0.17
HMQISDSASVKTVVAEAIAANPKAVADFMNGKDTATRYLVGQVMKITKGQAKPELVNQLVLESLAELKEK | 0.226
HMQISDSGELEKIVLQVIEENPKPAEQVRSGNEKAIGALVGGVMKATQGRADGGEVNRLLRQHLGL | 0.23
HMQISDVSLIAKVIDDVIDNNVKSVSDYLEGNLNVLRFLVGQVMKETKGKANPQKATELLQEKLESLNN | -0.386
HMQISLDTKLINLEFSVRANNVFRENQIFTLRDLTSHSKEDLMLMTNFGKTTLYEVNKKLEEHQLKLSQ | -1.53
HMQISNEEELEKIIENVIESNPEKVKAYQSGKSGLIGFFMGQVMKESGGQANPNLVNQILKGKL | 0.109
HMQIYSQEIYDAQKVLKELGLYTSDLDGLNGPGTKRALRNFQSKSGLNADGVLGPLTKSALDKGEESYITV | -0.0943
HMQKADFDYGDYVDLGLAMGRQSRQLREAVGIKLGIGYANSKRFYQRLQTFGISLAELKQAVEEAENDQQN | 0.149
HMQKEMDIVLQINGKMRSNLKVSSTANDDEIIKTAIESDAYKKFSLGLRIQKTIIVPNRLINIVLEK | ≥ 0.43
HMQKIYTIARGDTLSHIVAGTLKQQGIAYTTGELYRLVNVVAQYNDILNPNRIYTGHQLDLTPLYSED | -0.434
HMQKLLGPFEDFVKIKLDKYPDTKAAQMHDWLKEHYPDFPEVTPKTVYNFVMYVRQRHNIPIPD | -0.276
HMQKTVLAASVYERMKERIMDQYYPPGERLNIDALAIDLAVSPTPIREALARLAAERLITFEAYKGYRVSP | -0.637
